From patent US7314724B2, “Therapeutic applications of laminin and laminin-derived protein fragments” (University of Washington, priority 1996, dated 2008)

Biological target: T1, biotinylated Aβ (1-40) (Homo sapiens, UniProt P05067)
T1 construct: Aβ (1-40) was biotinylated according to the manufacturer's protocol (Pierce, Rockford, Ill.)
Test: Aβ ligand blot of undigested and V8-, trypsin- or elastase-digested EHS laminin
Type: binding
Details: 2 μM biotinylated Aβ (1-40), SDS-PAGE under non-reducing conditions
Experimental: For these experiments, Aβ (1-40) was biotinylated according to the manufacturer's protocol (Pierce, Rockford, Ill.). For the ligand studies, intact EHS laminin was left undigested, or digested with V8 or trypsin (Sigma Chemical Company, St. Louis, Mo., USA). More specifically, 2 μg of trypsin or V8 protease in 2 μl of 50 MM Tris-HCl buffer (pH 8.0) were added to 50 μl of laminin (50 μg)(in the same buffer) and incubated overnight at 37° C. The next day, 10 μl of protease-digested laminin (or undigested laminin) was mixed with 10 μl of 2× sodium dodecyl sulfate polyacrylamide gel electrophoresis (SDS-PAGE) sample buffer, and heated for 5 minutes in a boiling water bath. SDS-PAGE was performed according to the method of Laemmli (Laemmli, U.K. Nature 227:680-685, 1970), or according to the method of Schägger and Jagow (Schägger and Jagow, Anal. Biochem. 166:368-379, 1987) using a Mini-Protean II electrophoresis system (Biorad) with precast 4-15% Tris-Glycine or 10-20% tricine polyacrylamide gels, respectively, and under non-reducing conditions. Electrophoresis occurred at 200V for 45 minutes along with pre-stained molecular weight standards. After SDS-PAGE (10-20% tricine or 4-15% Tris-Glycine gels) was performed as described above, the separated laminin and its fragments (total protein of 10 μg/lane) were transferred to polyvinylidine difluoride membrane (PVDF) using a Mini transblot electrophoresis transfer cell (Biorad, Hercules, Calif., U.S.A.). Electrotransfer was performed at 100V for 2 hours. Following transfer, membranes were rinsed with methanol and dried. The fragment(s) of laminin involved in binding to Aβ were then detected by using biotinylated-Aβ (1-40), as described above. Blots were probed for 2 hours with 2 μM biotinylated Aβ (1-40) in TTBS. The membranes were then rinsed three times (10 seconds each) with TTBS, probed for 30 minutes with strepavidin alkaline phosphatase conjugate (Vectastain), rinsed again (as described above), and followed by the addition of an alkaline phosphatase substrate solution (Vectastain). Following color development, the reaction was stopped by flushing the membranes with double distilled water. In the next set of studies, we determined whether small fragment(s) of laminin generated by elastase digestion would bind to Aβ. […] For these experiments, Aβ (1-40) was biotinylated according to the manufacturer's protocol (Pierce, Rockford, Ill.). For the ligand studies, intact EHS laminin was left undigested, or digested with elastase (Sigma Chemical Company, St. Louis, Mo., USA). For elastase digestion, 2 μg of elastase in 8 μl of 50 mM Tris-HCl buffer (pH 8.0) was added to 50 μl of laminin (50 μg)(in the same buffer) and incubated for 1.5 hours or 2.5 hours at 37° C. In addition, as a control, 2 μg of elastase in 50 μl of 50 mM Tris-HCl buffer (pH 8.0) was incubated for 2.5 hours at 37° C. Following the appropriate incubation times as described above, 10 μl of each of the above incubations were mixed with 10 μl of 2× SDS-PAGE electrophoresis sample buffer, and heated for 5 minutes in a boiling water bath. SDS-PAGE was performed according to the method of Laemmli (Laemmli, Nature 227:680-685, 1970) using a Mini-Protean II electrophoresis system with precast 4-15% Tris-Glycine polyacrylamide gels, and under non-reducing conditions. Electrophoresis occurred at 200V for 45 minutes along with pre-stained molecular weight standards (Biorad). After SDS-PAGE was performed as described above, the separated laminin fragments were transferred to PVDF using a Mini transblot electrophoresis transfer cell (Millipore, Bedford, Mass., U.S.A.). Electrotransfer was performed at 100V for 2 hours. Following transfer, membranes were rinsed with methanol, dried and cut into two equal parts which were used for Aβ ligand blotting, or Coomassie blue staining and subsequent amino acid sequencing. The fragment(s) of laminin involved in binding to Aβ were then detected by using biotinylated-Aβ (1-40), as described above. […]

T1 sequence (P05067 672-711 limits assumed): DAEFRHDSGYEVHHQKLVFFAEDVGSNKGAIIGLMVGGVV

Substance: laminin: Engelbreth-Holm-Swarm (EHS) mouse tumor laminin (Sigma); 850 kDa basement membrane glycoprotein of A, B1 and B2 chains
- interaction with biotinylated Aβ (1-40) on ligand blot, in words: most prominent Aβ-interaction
